Assay [1] addresses galectin-10 (Gal10), species and tag not stated for the assay (UniProt Q05315). The experiment in a line: competition ELISA; negative control, set as 0% competition; competitor biotinylated g7B07 hFab. In general terms: In an ELISA, binding on a coated surface is turned into a signal by an enzyme label.
Assay [2] has the same target. The experiment in a line: competition ELISA; negative control; competitor biotinylated g7B07 hFab (detected).

Sequence of galectin-10 (Gal10), species and tag not stated for the assay (Q05315 2-142 limits assumed): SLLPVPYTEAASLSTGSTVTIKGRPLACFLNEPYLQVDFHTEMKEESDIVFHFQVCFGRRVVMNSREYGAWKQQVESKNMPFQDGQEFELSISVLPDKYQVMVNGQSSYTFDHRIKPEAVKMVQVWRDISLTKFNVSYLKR

Turning to Motavizumab in human Fab backbone, the % Competition against g7B07-Biot in assay [1] was 0%. In addition, the Mean OD value in assay [2] stood at 2.51 OD.

The values above are taken from patent publication US20250059284A1.
